According to article PMC10530080:

Biological target: recombinant human ATM, wild type (N-terminal FLAG-FKBP1A) (human) (UniProt Q13315)
Chain of UniProt Q13315 (Q13315 whole entry): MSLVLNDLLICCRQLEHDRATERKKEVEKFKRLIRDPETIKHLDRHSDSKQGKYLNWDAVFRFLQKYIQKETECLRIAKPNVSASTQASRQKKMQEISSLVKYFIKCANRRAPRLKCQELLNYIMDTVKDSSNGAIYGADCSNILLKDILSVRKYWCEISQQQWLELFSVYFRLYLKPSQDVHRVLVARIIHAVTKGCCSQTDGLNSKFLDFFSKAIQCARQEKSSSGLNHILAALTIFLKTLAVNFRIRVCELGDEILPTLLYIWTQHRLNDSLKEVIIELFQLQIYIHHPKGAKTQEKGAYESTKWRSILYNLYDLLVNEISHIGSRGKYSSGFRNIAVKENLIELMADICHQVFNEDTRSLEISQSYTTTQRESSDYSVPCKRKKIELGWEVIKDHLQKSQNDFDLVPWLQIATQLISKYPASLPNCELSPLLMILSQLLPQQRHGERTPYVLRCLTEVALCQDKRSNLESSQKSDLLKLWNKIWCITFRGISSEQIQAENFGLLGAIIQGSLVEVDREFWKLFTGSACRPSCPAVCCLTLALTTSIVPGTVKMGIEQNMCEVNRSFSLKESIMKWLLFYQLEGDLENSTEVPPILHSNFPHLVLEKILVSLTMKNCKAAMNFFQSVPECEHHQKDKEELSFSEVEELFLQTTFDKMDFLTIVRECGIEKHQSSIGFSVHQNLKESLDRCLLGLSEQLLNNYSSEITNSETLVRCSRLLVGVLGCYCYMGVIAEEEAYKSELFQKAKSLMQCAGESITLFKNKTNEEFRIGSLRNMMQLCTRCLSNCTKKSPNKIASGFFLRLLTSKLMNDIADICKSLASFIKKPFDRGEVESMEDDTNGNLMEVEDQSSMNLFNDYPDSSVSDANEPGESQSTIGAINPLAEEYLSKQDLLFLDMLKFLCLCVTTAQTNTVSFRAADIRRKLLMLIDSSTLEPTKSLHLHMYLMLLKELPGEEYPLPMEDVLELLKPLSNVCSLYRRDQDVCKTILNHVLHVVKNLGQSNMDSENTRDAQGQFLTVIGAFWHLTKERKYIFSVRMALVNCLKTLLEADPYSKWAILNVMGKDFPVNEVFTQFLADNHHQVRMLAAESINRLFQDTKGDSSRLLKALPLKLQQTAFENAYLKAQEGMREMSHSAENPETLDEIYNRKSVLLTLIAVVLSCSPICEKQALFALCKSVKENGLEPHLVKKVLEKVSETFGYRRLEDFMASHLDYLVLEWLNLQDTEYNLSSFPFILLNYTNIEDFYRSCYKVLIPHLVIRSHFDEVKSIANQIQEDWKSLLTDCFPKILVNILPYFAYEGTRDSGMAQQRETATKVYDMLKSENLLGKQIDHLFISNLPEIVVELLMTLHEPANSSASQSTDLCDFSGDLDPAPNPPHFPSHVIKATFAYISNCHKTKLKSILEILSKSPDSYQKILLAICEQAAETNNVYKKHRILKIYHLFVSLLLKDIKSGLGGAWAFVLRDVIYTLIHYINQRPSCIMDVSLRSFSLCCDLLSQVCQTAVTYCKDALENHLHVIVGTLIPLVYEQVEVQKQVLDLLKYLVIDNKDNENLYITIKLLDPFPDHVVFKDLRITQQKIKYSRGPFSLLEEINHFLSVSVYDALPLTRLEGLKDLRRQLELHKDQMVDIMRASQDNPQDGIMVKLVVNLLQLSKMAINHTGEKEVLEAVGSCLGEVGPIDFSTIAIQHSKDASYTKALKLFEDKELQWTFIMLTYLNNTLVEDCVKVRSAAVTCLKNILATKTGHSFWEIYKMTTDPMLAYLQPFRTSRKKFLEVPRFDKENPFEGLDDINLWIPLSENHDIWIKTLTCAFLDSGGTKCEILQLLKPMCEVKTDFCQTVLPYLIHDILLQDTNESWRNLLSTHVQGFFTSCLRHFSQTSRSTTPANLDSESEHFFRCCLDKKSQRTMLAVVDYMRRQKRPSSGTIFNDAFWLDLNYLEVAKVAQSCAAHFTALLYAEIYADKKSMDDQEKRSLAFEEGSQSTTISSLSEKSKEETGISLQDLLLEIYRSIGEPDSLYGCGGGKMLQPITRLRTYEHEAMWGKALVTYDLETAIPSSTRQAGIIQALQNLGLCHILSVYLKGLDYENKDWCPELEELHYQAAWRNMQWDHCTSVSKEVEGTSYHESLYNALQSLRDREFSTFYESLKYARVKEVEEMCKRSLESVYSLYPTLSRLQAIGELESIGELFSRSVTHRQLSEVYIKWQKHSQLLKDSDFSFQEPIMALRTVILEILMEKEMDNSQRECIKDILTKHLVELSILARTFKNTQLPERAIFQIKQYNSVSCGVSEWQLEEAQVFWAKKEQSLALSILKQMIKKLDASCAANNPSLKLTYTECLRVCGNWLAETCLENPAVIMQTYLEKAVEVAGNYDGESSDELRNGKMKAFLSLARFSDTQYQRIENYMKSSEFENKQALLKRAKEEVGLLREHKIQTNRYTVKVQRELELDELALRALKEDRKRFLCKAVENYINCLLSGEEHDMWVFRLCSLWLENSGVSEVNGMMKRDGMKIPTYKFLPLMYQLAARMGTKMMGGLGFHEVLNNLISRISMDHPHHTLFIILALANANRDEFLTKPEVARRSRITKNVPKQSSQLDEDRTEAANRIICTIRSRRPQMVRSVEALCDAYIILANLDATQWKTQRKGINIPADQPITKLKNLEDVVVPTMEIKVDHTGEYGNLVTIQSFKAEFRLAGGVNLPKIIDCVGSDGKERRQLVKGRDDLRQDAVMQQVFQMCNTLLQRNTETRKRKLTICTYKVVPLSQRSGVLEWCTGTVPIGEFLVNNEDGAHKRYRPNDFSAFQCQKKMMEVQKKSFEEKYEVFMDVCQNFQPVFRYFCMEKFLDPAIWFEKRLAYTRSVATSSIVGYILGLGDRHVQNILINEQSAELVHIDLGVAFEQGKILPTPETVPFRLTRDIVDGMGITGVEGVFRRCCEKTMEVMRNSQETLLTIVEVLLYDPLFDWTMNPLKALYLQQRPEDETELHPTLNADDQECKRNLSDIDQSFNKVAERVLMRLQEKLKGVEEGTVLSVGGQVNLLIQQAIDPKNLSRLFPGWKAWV

KM for p53 substrate, ATM activated by H2O2 (Phos-tag gel kinase assay, Michaelis-Menten): 29 µM
KM for p53 substrate, basal conditions (Phos-tag gel kinase assay, Michaelis-Menten): 80 µM
KM for p53 substrate, in the presence of MRN and 350-base pair dsDNA (Phos-tag gel kinase assay, Michaelis-Menten): 24 µM
Substance: His-MBP-TEV-p53(1-102) (from UniProt P04637 1-102) (domain or fragment)
